Laboratory results from the supplement of paper PMC6755084.

B1: minF1; the commonest letter at each place (parent)
chain: GAGACCGCAACTGAAAAGTTGTTATCAGAAATGGATGGGTTGAATTTCTGCACGTAGAAGCAAAAGGC

Variants of: B1
Assay: fraction ligated after 30 min (ligated reads / total reads); higher = more ligase activity
Settings: with F1*subA RNA substrate (template-directed ligation), 42 °C
Method in brief: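 Minimized ligase ribozyme variants came from oligo-pool templates that were PCR-amplified, T7-transcribed and gel-purified. Their ligated and unligated RNAs were separated on gels before barcoded reverse transcription and MiSeq sequencing, with core bases kept only at quality ≥30. The fraction ligated for each variant is its ligated reads as a proportion of all its reads.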

Row | Variant | fraction ligated
1 | T25A A27T | 0.0564
2 | T25A A27C | 0.0652
3 | C26A A27C | 0.134
4 | C26A A27G | 0.481
5 | C26A A27T | 0.0953
6 | A27C A31G | 0.687
7 | A27C A31T | 0.455
8 | A27C A31C | 0.421
9 | T25G T32A | 0.00223
10 | T25G T32C | 0.00349
11 | T25G T32G | 0.00886
12 | C26T A30T | 0.339
13 | C26T A30C | 0.333
14 | C26T A30G | 0.5
15 | C26G | 0.0466
16 | C26A | 0.121
17 | C26T | 0.433
18 | T25C A30C | 0.081
19 | T25C A30T | 0.0786
20 | T25C A30G | 0.0308
21 | A24T T36A | 0.0205
22 | A24T T36G | 0.0114
23 | A24T T36C | 0.00304
24 | C26A G37T | 0.00569

Row | Variant | fraction ligated
25 | C26A G37A | 0.00335
26 | C26A G37C | 0.00572
27 | T25A G34A | 0.00806
28 | T25A G34C | 0.0033
29 | T25A G34T | 0.00319
30 | A24T G42T | 0.00308
31 | A24T G42A | 0.00238
32 | A24T G42C | 0.00191
33 | T25G A27G | 0.0208
34 | T25G A27C | 0.0754
35 | T25G A27T | 0.0947
36 | A27G A29C | 0.809
37 | A27G A29T | 0.808
38 | A27G A29G | 0.797
39 | T25C A44T | 0.0143
40 | T25C A44C | 0.00738
41 | T25C A44G | 0.0106
42 | C26A A30T | 0.0695
43 | C26A A30C | 0.0463
44 | C26A A30G | 0.216
45 | A27G A30C | 0.803
46 | A27G A30T | 0.78
47 | A27G A30G | 0.824
48 | T25A G42C | 0.00199

Row | Variant | fraction ligated
49 | T25A G42T | 0.00246
50 | T25A G42A | 0.00144
51 | C26T A31T | 0.404
52 | C26T A31G | 0.52
53 | C26T A31C | 0.312
54 | T25G A44C | 0.00312
55 | T25G A44T | 0.00667
56 | T25G A44G | 0.00956
57 | T25G G42C | 0.004
58 | T25G G42A | 0.00421
59 | T25G G42T | 0.000854
60 | A27C T36A | 0.0988
61 | A27C T36G | 0.0955
62 | A27C T36C | 0.0483
63 | C26A A44G | 0.03
64 | C26A A44T | 0.0723
65 | C26A A44C | 0.0236
66 | C26G G42T | 0.00229
67 | C26G G42A | 0.00168
68 | C26G G42C | 0.00152
69 | T25C A35C | 0.00531
70 | T25C A35T | 0.009
71 | T25C A35G | 0.0463
72 | A27G A43C | 0.132

Row | Variant | fraction ligated
73 | A27C A44C | 0.244
74 | A27C A44T | 0.441
75 | A27C A44G | 0.38
76 | C26G G28C | 0.0331
77 | C26G G28T | 0.0589
78 | C26G G28A | 0.0283
79 | T25A T32A | 0.00329
80 | T25A T32C | 0.00391
81 | T25A T32G | 0.00199
82 | T25A A43G | 0.00383
83 | T25A A43T | 0.00628
84 | T25A A43C | 0.00284
85 | C26T A29C | 0.39
86 | C26T A29T | 0.43
87 | C26T A29G | 0.417
88 | A27C A29C | 0.623
89 | A27C A29T | 0.501
90 | A27C A29G | 0.61
91 | C26A A35C | 0.00203
92 | C26A A35G | 0.00416
93 | C26A A35T | 0.00429
94 | T25A C26T | 0.00642
95 | T25A C26A | 0.00271
96 | T25A C26G | 0.00462

Row | Variant | fraction ligated
97 | T25G G37T | 0.00311
98 | T25G G37A | 0.00178
99 | T25G G37C | 0.00475
100 | C26A G28C | 0.0637
101 | C26A G28A | 0.0578
102 | C26A G28T | 0.117
103 | C26G G37T | 0.00384
104 | C26G G37C | 0.00497
105 | C26G G37A | 0.00254
106 | C26G A29C | 0.0431
107 | C26G A29T | 0.0347
108 | C26G A29G | 0.0311
109 | T25A A29T | 0.015
110 | T25A A29C | 0.00458
111 | T25A A29G | 0.00957
112 | T25G G33C | 0.00397
113 | T25G G33A | 0.0162
114 | T25G G33T | 0.0188
115 | T25C T32G | 0.00219
116 | T25C T32C | 0.00341
117 | T25C T32A | 0.00778
118 | T25C G28C | 0.165
119 | T25C G28T | 0.207
120 | T25C G28A | 0.15

Row | Variant | fraction ligated
121 | A24T T32A | 0.00395
122 | A24T T32C | 0.000877
123 | A24T T32G | 0.00134
124 | A27G A35G | 0.332
125 | A27G A35T | 0.0618
126 | A27G A35C | 0.0489
127 | C26G A43G | 0.00467
128 | C26G A43C | 0.00457
129 | C26G A43T | 0.00299
130 | T25G G28A | 0.0158
131 | T25G G28C | 0.0182
132 | T25G G28T | 0.0241
133 | T25A T36G | 0.0106
134 | T25A T36C | 0.00785
135 | T25A T36A | 0.00698
136 | C26T A44T | 0.246
137 | C26T A44C | 0.091
138 | C26T A44G | 0.142
139 | A27G | 0.803
140 | A27C | 0.694
141 | C26A A43G | 0.00987
142 | C26A A43C | 0.00276
143 | C26A A43T | 0.00633
144 | T25G C26A | 0.00653

Row | Variant | fraction ligated
145 | T25G C26G | 0.00725
146 | T25G C26T | 0.00381
147 | T25C A43C | 0.0068
148 | T25C A43T | 0.00508
149 | T25C A43G | 0.00741
150 | C26T A43T | 0.0127
151 | C26T A43G | 0.0095
152 | C26T A43C | 0.00569
153 | T25C G37T | 0.00523
154 | T25C G37A | 0.00575
155 | T25C G37C | 0.00302
156 | A27C A35C | 0.481
157 | A27C A35T | 0.176
158 | A27C A35G | 0.112
159 | T25G A43G | 0.00372
160 | T25G A43T | 0.00824
161 | T25G A43C | 0.00324
162 | C26G A44C | 0.00656
163 | C26G A44T | 0.0283
164 | C26G A44G | 0.0117
165 | T25A A30G | 0.00687
166 | T25A A30T | 0.0158
167 | T25A A30C | 0.0114
